Earlier results in paper PMC10578080.

Molecular target: neuronal ternary SNARE complex (Rattus norvegicus) (UniProt P32851)
Chain of UniProt P32851 (P32851 whole entry, chain 1 of 3): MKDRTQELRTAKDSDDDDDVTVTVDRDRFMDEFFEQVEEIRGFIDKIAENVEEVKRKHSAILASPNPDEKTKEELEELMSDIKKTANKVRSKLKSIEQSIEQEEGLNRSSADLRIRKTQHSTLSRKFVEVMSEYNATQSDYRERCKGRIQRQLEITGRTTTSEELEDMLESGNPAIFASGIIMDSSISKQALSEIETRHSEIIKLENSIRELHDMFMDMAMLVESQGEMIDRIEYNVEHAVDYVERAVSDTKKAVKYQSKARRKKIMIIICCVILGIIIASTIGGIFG
Chain of UniProt P32851 (B2RAU4 whole entry, chain 2 of 3, further chain): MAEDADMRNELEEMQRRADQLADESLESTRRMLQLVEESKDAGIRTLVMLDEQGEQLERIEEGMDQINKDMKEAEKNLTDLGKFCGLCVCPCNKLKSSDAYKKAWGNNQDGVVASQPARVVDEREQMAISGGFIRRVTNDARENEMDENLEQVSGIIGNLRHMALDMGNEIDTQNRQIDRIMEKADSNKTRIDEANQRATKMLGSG
Chain of UniProt P32851 (P63044 2-116, chain 3 of 3, further chain): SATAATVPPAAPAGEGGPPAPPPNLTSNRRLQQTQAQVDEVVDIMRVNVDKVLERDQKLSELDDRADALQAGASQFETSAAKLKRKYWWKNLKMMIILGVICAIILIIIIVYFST

Question: Which Kd does the source give for “Cpx1 central domain (from UniProt P63041)” here?
Answer: 10 nM
